Measured values as given in patent WO1995033832A1.

Experiments:
[1] = target: recombinant Hepatitis B virus surface antigen (HBsAg) (Hepatitis B virus); assay: ELISA; scFv preincubated with HBsAg in solution, molar ratio fragment:antigen 1:0.7; inhibition of binding to coated HBsAg
[2] = target: recombinant Hepatitis B virus surface antigen (HBsAg) (Hepatitis B virus); assay: immunoaffinity column, scFv on Sepharose CL-4B; Expt. 5, crude semipurified HBsAg, 2 mg loaded
[3] = target: recombinant Hepatitis B virus surface antigen (HBsAg) (Hepatitis B virus); assay: ELISA; scFv preincubated with HBsAg in solution, molar ratio fragment:antigen 1:3.5; inhibition of binding to coated HBsAg
[4] = target: recombinant Hepatitis B virus surface antigen (HBsAg) (Hepatitis B virus); assay: ELISA, plates coated with recombinant HBsAg 5 ug/ml; renatured and IMAC-purified scFv; detected with rabbit anti-Fab and Protein A-HRP
[5] = target: recombinant Hepatitis B virus surface antigen (HBsAg) (Hepatitis B virus); assay: ELISA; scFv preincubated with HBsAg in solution, molar ratio fragment:antigen 1:0.14; inhibition of binding to coated HBsAg
[6] = target: recombinant Hepatitis B virus surface antigen (HBsAg) (Hepatitis B virus); assay: ELISA; scFv without HBsAg in solution, molar ratio fragment:antigen 1:0 (reference)
[7] = target: recombinant Hepatitis B virus surface antigen (HBsAg) (Hepatitis B virus); assay: immunoaffinity column, scFv on Sepharose CL-4B; Expt. 4, crude semipurified HBsAg, 2 mg loaded
[8] = target: recombinant Hepatitis B virus surface antigen (HBsAg) (Hepatitis B virus); assay: immunoaffinity column, scFv on Sepharose CL-4B; Expt. 3, pure HBsAg, 2 mg loaded
[9] = target: recombinant Hepatitis B virus surface antigen (HBsAg) (Hepatitis B virus); assay: scFv on Sepharose CL-4B; saturating pure HBsAg applied, eluted with 3 M KSCN (gel without ligand: 0.012 mg)
[10] = target: recombinant Hepatitis B virus surface antigen (HBsAg) (Hepatitis B virus); assay: ELISA on coated recombinant HBsAg
[11] = target: recombinant Hepatitis B virus surface antigen (HBsAg) (Hepatitis B virus); assay: ELISA, plates coated with recombinant HBsAg 5 ug/ml; renatured scFv, not purified; detected with rabbit anti-Fab and Protein A-HRP
[12] = target: recombinant Hepatitis B virus surface antigen (HBsAg) (Hepatitis B virus); assay: immunoaffinity column, scFv on Sepharose CL-4B; Expt. 1, pure HBsAg, 2 mg loaded
[13] = target: recombinant Hepatitis B virus surface antigen (HBsAg) (Hepatitis B virus); assay: immunoaffinity column, scFv on Sepharose CL-4B; Expt. 6, crude semipurified HBsAg, 2 mg loaded
[14] = target: recombinant Hepatitis B virus surface antigen (HBsAg) (Hepatitis B virus); assay: immunoaffinity column, scFv on Sepharose CL-4B; Expt. 2, pure HBsAg, 2 mg loaded

% inhibition [1]: 76.4%
mg HBsAg eluted/ml gel (mg HBsAg eluted/ml gel) [2]: 0.26
% inhibition [3]: 95.1%
Absorbance at 492 nm (absorbance at 492 nm) [4]: 0.68
% inhibition [5]: 12.8%
% inhibition [6]: 0%
mg HBsAg eluted/ml gel (mg HBsAg eluted/ml gel) [7]: 0.45
mg HBsAg eluted/ml gel (mg HBsAg eluted/ml gel) [8]: 0.51
Amount of eluted HBsAg [9]: 0.126 mg
optimal binding concentration (saturation) [10]: 37 µg/mL
Absorbance at 492 nm (absorbance at 492 nm) [11]: 1.54
mg HBsAg eluted/ml gel (mg HBsAg eluted/ml gel) [12]: 0.54
mg HBsAg eluted/ml gel (mg HBsAg eluted/ml gel) [13]: 0.42
mg HBsAg eluted/ml gel (mg HBsAg eluted/ml gel) [14]: 0.34
Substance: anti-HBsAg scFv (recombinant single chain Fv antibody fragment, VH-linker-VL, from MAb CB-Hep.1, expressed in E. coli from pPACIB.1/scFv anti HBsAg)
